# Measured values published in US9051358B2, “Nonnatural collagen-like protein and use thereof” (ZHEJIANG UNIVERSITY, priority 2009, dated 2015).
# B1: rhG-CSF: rhG-CSF (Filgrastim, Amgen, USA) (protein, UniProt P09919 31-207, looked up)
# Granulocyte …: TPLGPASSLPQSFLLKCLEQVRKIQGDGAALQEKLVSECATYKLCHPEELVLLGHSLGIPWAPLSSCPSQALQLAGCLSQLHSGLFLYQGLLQALEGISPELGPTLDTLQLDVADFATTIWQQMEELGMAPALQPTQGAMPAFASAFQRRAGGVLVASHLQSFLEVSYRVLRHLAQP
# modifications: filgrastim, N-terminal Met
# B2: rGLK420/G-CSF: fusion protein of GLK420 and G-CSF (SEQ ID NO: 10) (protein)
# chain: GPPGEDGDKGEIGEPGQKGSKGDKGEQGPPGPTGPQGPIGQPGPSGADGEPGPRGQQGLFGQKGDEGPRGFPGPPGPVGLQGLPGPPGEKGETGDVGQMGPPGPPGPRGPSGAPGADGPQGPPGGIGNPGAVGEKGEPGEAGEPGLPGEGGPPGPKGERGEKGESGPSGAAGPPGPKGPPGDDGPKGSPGPVGFPGDPGPPGEPGPAGQDGPPGDKGDDGEPGQTGSPGPTGEPGPSGPPGKRGPPGPAGPEGRQGEKGAKGEAGLEGPPGKTGPIGPQGAPGKPGPDGLRGIPGPVGEQGLPGSPGPDGPPGPMGPPGLPGLKGDSGPKGEKGHPGLIGLIGPPGEQGEKGDRGLPGPQGSSGPKGEQGITGPSGPIGPPGPPGLPGPPGPKGAKGSSGPTGPKGEAGHPGPPGPPGPPTPLGPASSLPQSFLLKCLEQVRKIQGDGAALQEKLCATYKLCHPEELVLLGHSLGIPWAPLSSCPSQALQLAGCLSQLHSGLFLYQGLLQALEGISPELGPTLDTLQLDVADFATTIWQQMEELGMAPALQPTQGAMPAFASAFQRRAGGVLVASHLQSFLEVSYRVLRHLAQP
# modifications: GLK420/G-CSF, fusion protein
# B3: rGLK1164/G-CSF: fusion protein of GLK1164 and hG-CSF (SEQ ID NO: 6) (protein)
# chain: GPPGEQGKPGNQGEPGNPGSPGQPGNPGQPGSPGNPGQPGNEGPQGSQGNPGQPGEPGSNGQPGQPGQNGKNGQPGSPGSQGSPGNQGSPGNQGQPGNKGEQGKPGNQGPAGEQGKPGNQGEPGNPGSPGQPGNPGQPGSPGNPGQPGNEGPQGSQGNPGQPGEPGSNGQPGQPGQNGKNGQPGSPGSQGSPGNQGSPGNQGQPGNKGEQGKPGNQGPAGEQGKPGNQGEPGNPGSPGQPGNPGQPGSPGNPGQPGNEGPQGSQGNPGQPGEPGSNGQPGQPGQNGKNGQPGSPGSQGSPGNQGSPGNQGQPGNKGEQGKPGNQGPAGEQGKPGNQGEPGNPGSPGQPGNPGQPGSPGNPGQPGNEGPQGSQGNPGQPGEPGSNGQPGQPGQNGKNGQPGSPGSQGSPGNQGSPGNQGQPGNKGEQGKPGNQGPAGGSGGTPLGPASSLPQSFLLKCLEQVRKIQGDGAALQEKLCATYKLCHPEELVLLGHSLGIPWAPLSSCPSQALQLAGCLSQLHSGLFLYQGLLQALEGISPELGPTLDTLQLDVADFATTIWQQMEELGMAPALQPTQGAMPAFASAFQRRAGGVLVASHLQSFLEVSYRVLRHLAQP
# modifications: rGLK116 tetramer/G-CSF
# Legend:
# [1] = system: G-CSF-dependent cell line NFS60; test: In vitro bioactivity in G-CSF-dependent cell line NFS60 by MTT assay; type: cell-based; conditions: for Bioactivity (IU/mg): Table 4; for Relative activity (in molar basis)(%): relative to G-CSF
# Description: In vitro bioactivity of the rGLK1164/G-CSF fusion protein was measured in G-CSF-dependent cell line NFS60 by MTT assay (Chinese Pharmacopoeia, 2005 edition, three sections).
# [2] = In vitro stability, shock at 40° C., SEC-HPLC analysis; type: physicochemical; conditions: for Purity (%) (SEC-HPLC analysis): 1 mg/ml in 20 mM PB pH6.0, 40° C.; for protein content after incubation (%): 40° C.; for in vitro stability (aggregates, total protein content): shock 48 hours at 40° C.
# Description: Reference rhG-CSF and rGLK1164/G-CSF were dissolved in 20 mM PB, pH6.0 to the protein concentration of 1 mg/ml. samples were sterile filtered and distributed to penicillin bottles. […]
# [3] = Pharmacokinetics of G-CSF proteins in SD rats (ELISA); type: in vivo; conditions: for Half-life: SD rats; for detectability in blood after subcutaneous injection: blood concentration-time curve
# From the text: (§1) The pharmacokinetic parameters and pharmacodynamic properties of rhG-CSF (Filgrastim, Amgen, USA), rHSA/G-CSF (prepared according to U.S. Pat. No. 5,876,969), rGLK1164/G-CSF and rGLK1164 in SD rats were compared.
# (§2) Adult SPF SD rats (approximately 300-350 g) from the Center of Experimental Animals of Chinese Academy of Sciences in Shanghai were divided into 8 groups and administered according to Table 3. Blood samples were collected from the caudal veins of rats. The number of white blood cells were counted, and serum was saved at −20° C. after separated by centrifugation (3000rpm for 5 minutes).
# The plasma concentration detection of rhG-CSF, rGLK1164/G-CSF and rHSA/G-CSF was carried out using ELISA (for the specific operations, refer to the operating manual of Human G-CSF DuoSet kit Human G-CSF ELISA Construction Kit (ANTIGENIX)). The MicroCal Origin software was used to draw standard curve according to four-parameter logistic fitting method, and calculate related statistical parameters by regression analysis. The 3P87 software was used to calculate the PK parameters.
# GLK/G-CSFs with different structures were prepared in a similar way, and their activity, half-life in SD rats and other relevant parameters were compared.
# [4] = Immunogenicity study in mice, serum antibody detection by ELISA; type: in vivo, Balc/C mice; conditions: sc once a week, 2.5 nmol
# Description: Balc/C mice (n=12) with a average weight of about 25 g were evenly divided into 4 groups. 2.5 nmol rGLK1164, 2.5 nmol rGLK1164/G-CSF, and the same volume of saline were administered to a corresponding group respectively by subcutaneous injection once a week. Serum samples were collected in week 4 and week 9(a week after the eighth immunization) and were saved separately at −70° C.
# rGLK1164 or G-CSF was diluted with 0.2M carbonate buffer (pH9.6) to 1 μg/ml. Each well of the ELISA microplate was filled with 100 μl dilution and coated overnight at 4° C., and then the wells were washed with PBST for 3 times(5 minutes each time). The washed wells were sealed by 5% nonfat dry milk for 1 hour, and then washed three times with PBST (5 minutes each time). The preserved serum of each group was added to the well at a rate of 1:50,1:200,1:800, and then the microplate was incubated at 37° C. for 1 hour, and for one increased hour after the secondary antibody, HRP-conjugated goat anti-mouse antibody was added. After the microplate was shook to dry and washed by PBST, it was colored with TMB-HCL and detected under the illumination of 450 nm. Meanwhile, 200 ng/ml of rabbit anti-human G-CSF antibody was used as a positive control.
# [5] = system: white blood cells; test: Pharmacodynamic study, number of white blood cells in SD rats; type: in vivo
# From the text: as §1, §2
molecule,measurement,setting,value
B1,Bioactivity (IU/mg),[1],0.7 × 10^8 IU/mg
same,Relative activity (in molar basis)(%),[1],100%
same,Purity (%) (SEC-HPLC analysis),[2]; 0 h,99.8%
same,protein content after incubation (%),[2]; 0 h,100%
same,Purity (%) (SEC-HPLC analysis),[2]; 24 h,94.3%
same,protein content after incubation (%),[2]; 24 h,91.2%
same,Purity (%) (SEC-HPLC analysis),[2]; 48 h,85.2%
same,protein content after incubation (%),[2]; 48 h,68.9%
same,"in vitro stability (aggregates, total protein content)",[2],a large number of polymeric aggregates were formed and the total protein content was also decreased significantly
same,Half-life,[3],1.7 h
same,detectability in blood after subcutaneous injection,[3],couldn't be detected 24 hours later
B2,Bioactivity (IU/mg),[1],0.28 × 10^8 IU/mg
same,Relative activity (in molar basis)(%),[1],129%
same,Half-life,[3],>7 h
B3,serum anti-G-CSF antibody,[4]; plate coated by G-CSF,anti-G-CSF antibody is produced
same,serum anti-rGLK1164 antibody,[4]; plate coated by rGLK1164,no anti-rGLK1164 antibody produced
same,in vitro activity,[1],about 3.3×10^7 IU/mg
same,Bioactivity (IU/mg),[1],0.33 × 10^8 IU/mg
same,Relative activity (in molar basis)(%),[1],146%
same,Purity (%) (SEC-HPLC analysis),[2]; 0 h,99.5%
same,protein content after incubation (%),[2]; 0 h,100%
same,Purity (%) (SEC-HPLC analysis),[2]; 24 h,98.7%
same,protein content after incubation (%),[2]; 24 h,97.8%
same,Purity (%) (SEC-HPLC analysis),[2]; 48 h,97.5%
same,protein content after incubation (%),[2]; 48 h,96.7%
same,"in vitro stability (aggregates, total protein content)",[2],changed little
same,Half-life,[3],>7 h
same,terminal half-life,[3]; administered subcutaneously in rats,10 h
same,detectability in blood after subcutaneous injection,[3],could still be detected at 72 hours
same,number of white blood cells,[5]; 48 hours after an injection,increased significantly
same,extent and duration of white blood cell increase versus rHSA/G-CSF,[5]; same dosage,no significant difference
